molecular target: Flag-tagged full length MED1 (UniProt Q15648 1-1581); test: immobilized-template protein recruitment assay
Sequence (Q15648 whole entry): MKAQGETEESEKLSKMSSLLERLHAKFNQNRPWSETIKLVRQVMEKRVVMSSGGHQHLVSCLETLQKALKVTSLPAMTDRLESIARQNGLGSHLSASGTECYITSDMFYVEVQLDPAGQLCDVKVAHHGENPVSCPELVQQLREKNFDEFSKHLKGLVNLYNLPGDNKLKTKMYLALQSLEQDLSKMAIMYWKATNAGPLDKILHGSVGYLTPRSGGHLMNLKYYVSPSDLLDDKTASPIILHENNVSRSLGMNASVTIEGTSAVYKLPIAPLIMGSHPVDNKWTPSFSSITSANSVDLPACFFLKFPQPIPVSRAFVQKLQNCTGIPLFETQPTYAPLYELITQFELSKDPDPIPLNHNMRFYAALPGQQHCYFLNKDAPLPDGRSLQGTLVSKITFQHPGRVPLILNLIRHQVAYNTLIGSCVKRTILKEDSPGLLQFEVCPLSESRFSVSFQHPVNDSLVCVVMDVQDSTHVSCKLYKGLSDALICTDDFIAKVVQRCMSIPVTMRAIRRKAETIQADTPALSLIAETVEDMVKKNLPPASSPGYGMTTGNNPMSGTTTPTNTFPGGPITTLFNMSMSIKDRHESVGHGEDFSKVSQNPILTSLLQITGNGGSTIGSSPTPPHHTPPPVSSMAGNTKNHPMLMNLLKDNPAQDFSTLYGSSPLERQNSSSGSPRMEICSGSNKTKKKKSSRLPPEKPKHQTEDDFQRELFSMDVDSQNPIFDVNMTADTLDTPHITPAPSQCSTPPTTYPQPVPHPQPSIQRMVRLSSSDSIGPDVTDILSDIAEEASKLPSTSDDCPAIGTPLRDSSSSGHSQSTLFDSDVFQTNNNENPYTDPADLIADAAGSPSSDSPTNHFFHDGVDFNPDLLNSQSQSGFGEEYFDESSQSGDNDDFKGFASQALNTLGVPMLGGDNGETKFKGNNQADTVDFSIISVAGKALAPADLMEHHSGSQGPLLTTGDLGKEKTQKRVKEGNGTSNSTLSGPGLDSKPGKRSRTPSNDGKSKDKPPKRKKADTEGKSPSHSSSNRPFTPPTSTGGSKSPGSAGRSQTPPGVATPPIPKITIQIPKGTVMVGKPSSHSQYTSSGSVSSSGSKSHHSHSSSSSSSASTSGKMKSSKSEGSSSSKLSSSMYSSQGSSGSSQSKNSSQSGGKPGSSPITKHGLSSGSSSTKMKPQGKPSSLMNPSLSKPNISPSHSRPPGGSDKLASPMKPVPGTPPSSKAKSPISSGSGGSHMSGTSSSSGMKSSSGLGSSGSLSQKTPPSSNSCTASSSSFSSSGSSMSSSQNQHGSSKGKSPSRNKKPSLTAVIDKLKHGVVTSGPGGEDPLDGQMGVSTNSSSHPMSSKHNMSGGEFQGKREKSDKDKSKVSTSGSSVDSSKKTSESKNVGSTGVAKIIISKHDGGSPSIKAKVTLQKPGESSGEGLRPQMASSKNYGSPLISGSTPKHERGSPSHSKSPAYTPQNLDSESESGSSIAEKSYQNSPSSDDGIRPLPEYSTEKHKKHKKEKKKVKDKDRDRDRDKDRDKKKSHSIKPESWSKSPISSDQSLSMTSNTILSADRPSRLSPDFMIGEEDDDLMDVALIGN

binding result | Binder
binds | His-tagged full length PGC-1α (natural protein, UniProt O70343 1-797, looked up) MAWDMCSQDSVWSDIECAALVGEDQPLCPDLPELDLSELDVNDLDTDSFLGGLKWCSDQSEIISNQYNNEPANIFEKIDEENEANLLAVLTETLDSLPVDEDGLPSFDALTDGAVTTDNEASPSSMPDGTPPPQEAEEPSLLKKLLLAPANTQLSYNECSGLSTQNHAANHTHRIRTNPAIVKTENSWSNKAKSICQQQKPQRRPCSELLKYLTTNDDPPHTKPTENRNSSRDKCASKKKSHTQPQSQHAQAKPTTLSLPLTPESPNDPKGSPFENKTIERTLSVELSGTAGLTPPTTPPHKANQDNPFKASPKLKPSCKTVVPPPTKRARYSECSGTQGSHSTKKGPEQSELYAQLSKSSGLSRGHEERKTKRPSLRLFGDHDYCQSLNSKTDILINISQELQDSRQLDFKDASCDWQGHICSSTDSGQCYLRETLEASKQVSPCSTRKQLQDQEIRAELNKHFGHPCQAVFDDKSDKTSELRDGDFSNEQFSKLPVFINSGLAMDGLFDDSEDESDKLSYPWDGTQPYSLFDVSPSCSSFNSPCRDSVSPPKSLFSQRPQRMRSRSRSFSRHRSCSRSPYSRSRSRSPGSRSSSRSCYYYESSHYRHRTHRNSPLYVRSRSRSPYSRRPRYDSYEAYEHERLKRDEYRKEHEKRESERAKQRERQKQKAIEERRVIYVGKIRPDTTRTELRDRFEVFGEIEECTVNLRDDGDSYGFITYRYTCDAFAALENGYTLRRSNETDFELYFCGRKQFFKSNYADLDTNSDDFDPASTKSKYDSLDFDSLLKEAQRSLRR
binds | His-tagged PGC-1α (334–797) (domain or fragment, UniProt O70343 334-797, looked up) ECSGTQGSHSTKKGPEQSELYAQLSKSSGLSRGHEERKTKRPSLRLFGDHDYCQSLNSKTDILINISQELQDSRQLDFKDASCDWQGHICSSTDSGQCYLRETLEASKQVSPCSTRKQLQDQEIRAELNKHFGHPCQAVFDDKSDKTSELRDGDFSNEQFSKLPVFINSGLAMDGLFDDSEDESDKLSYPWDGTQPYSLFDVSPSCSSFNSPCRDSVSPPKSLFSQRPQRMRSRSRSFSRHRSCSRSPYSRSRSRSPGSRSSSRSCYYYESSHYRHRTHRNSPLYVRSRSRSPYSRRPRYDSYEAYEHERLKRDEYRKEHEKRESERAKQRERQKQKAIEERRVIYVGKIRPDTTRTELRDRFEVFGEIEECTVNLRDDGDSYGFITYRYTCDAFAALENGYTLRRSNETDFELYFCGRKQFFKSNYADLDTNSDDFDPASTKSKYDSLDFDSLLKEAQRSLRR
binds | His-tagged PGC-1α (501–797) (domain or fragment, UniProt O70343 501-797, looked up) NSGLAMDGLFDDSEDESDKLSYPWDGTQPYSLFDVSPSCSSFNSPCRDSVSPPKSLFSQRPQRMRSRSRSFSRHRSCSRSPYSRSRSRSPGSRSSSRSCYYYESSHYRHRTHRNSPLYVRSRSRSPYSRRPRYDSYEAYEHERLKRDEYRKEHEKRESERAKQRERQKQKAIEERRVIYVGKIRPDTTRTELRDRFEVFGEIEECTVNLRDDGDSYGFITYRYTCDAFAALENGYTLRRSNETDFELYFCGRKQFFKSNYADLDTNSDDFDPASTKSKYDSLDFDSLLKEAQRSLRR

From PMC3217464 (Molecular cell, 2009)
